This data set in a line: total protein half-life in vivo (active degradation + dilution); higher = more stable protein.
Setting [1] is: E. coli NCM3722 delta-clpP delta-lon delta-hslV, growth: N-lim chemostat, doubling time 6 h.
The mark [2] stands for this setting: E. coli NCM3722 delta-clpP, growth: N-lim chemostat, doubling time 6 h.
Where [3] appears, read: E. coli NCM3722 delta-hslV, growth: N-lim chemostat, doubling time 6 h.
[4] abbreviates: E. coli NCM3722 delta-lon, growth: N-lim chemostat, doubling time 6 h.
[5] abbreviates: E. coli NCM3722 delta-smpB, growth: N-lim chemostat, doubling time 6 h.
Where [6] appears, read: wild type E. coli NCM3722, growth: C-lim chemostat, doubling time 3 h.
Where [7] appears, read: wild type E. coli NCM3722, growth: C-lim chemostat, doubling time 6 h.
Setting [8] is: wild type E. coli NCM3722, growth: C-lim chemostat, doubling time 12 h.
Setting [9] is: wild type E. coli NCM3722, growth: N-lim chemostat, doubling time 6 h.
[10] abbreviates: wild type E. coli NCM3722, growth: N-lim chemostat, doubling time 12 h.
Where [11] appears, read: wild type E. coli NCM3722, growth: P-lim chemostat, doubling time 6 h.
The mark [12] stands for this setting: wild type E. coli NCM3722, growth: P-lim chemostat, doubling time 12 h.

± gives the standard deviation of the averaged measurements.

The values that follow come from the supplement of paper PMC11246515.

For “MAEKFIKHTGLVVPLDAANVDTDAIIPKQFLQKVTRTGFGAHLFNDWRFLDEKGQQPNPDFVLNFPQYQGASILLARENFGCGSSREHAPWALTDYGFKVVIAPSFADIFYGNSFNNQLLPVKLSDAEVDELFALVKANPGIHFDVDLEAQEVKAGEKTYRFTIDAFRRHCMMNGLDSIGLTLQHDDAIAAYEAKQPAFMN”, the “total protein half-life in vivo” value reads like this: under setting [1], 3.91 ± 0.1 h; under setting [2], 1.33 ± 0.047 h; under setting [3], 2.363 ± 0.02 h; under setting [4], 3.85 ± 0.072 h; under setting [5], 2.306 ± 0.018 h; under setting [6], 1.96 ± 0.16 h. Further, the “total protein half-life in vivo” value is, setting by setting: under setting [7], 3.02 ± 0.097 h; under setting [8], 3.926 ± 0.038 h; under setting [9], 2.54 ± 0.17 h; under setting [10], 4.05 ± 1.3 h; under setting [11], 2.1 ± 0.28 h; under setting [12], 5.15 ± 0.8 h.

Regarding “MEWSLTQNKLLAFHRLMRTDKPIGALLLLWPTLWALWVATPGVPQLWILAVFVAGVWLMRAAGCVVNDYADRKFDGHVKRTANRPLPSGAVTEKEARALFVVLVLISFLLVLTLNTMTILLSIAALALAWVYPFMKRYTHLPQVVLGAAFGWSIPMAFAAVSESVPLSCWLMFLANILWAVAYDTQYAMVDRDDDVKIGIKSTAILFGQYDKLIIGILQIGVLALMAIIGELNGLGWGYYWSILVAGALFVYQQKLIANREREACFKAFMNNNYVGLVLFLGLAMSYWHF [P0AGK1]”, the “total protein half-life in vivo” value amounted to 1.5 ± 0.18 h under setting [1]; 1.13 h under setting [2]; 1.29 h under setting [3]; 0.759 h under setting [4]; 1.45 ± 0.17 h under setting [5]; 1.27 ± 0.027 h under setting [6]. Moreover, the “total protein half-life in vivo” value runs as follows: under setting [7], 1.92 ± 0.27 h; under setting [8], 2.32 ± 0.41 h; under setting [9], 1.29 ± 0.2 h; under setting [11], 2.18 ± 0.52 h; under setting [12], 2.85 h.

“MQTSPLLTQLMEALRCLPGVGPKSAQRMAFTLLQRDRSGGMRLAQALTRAMSEIGHCADCRTFTEQEVCNICSNPRRQENGQICVVESPADIYAIEQTGQFSGRYFVLMGHLSPLDGIGPDDIGLDRLEQRLAEEKITEVILATNPTVEGEATANYIAELCAQYDVEASRIAHGVPVGGELEMVDGTTLSHSLAGRHKIRF [P0A7H6]”: the “total protein half-life in vivo” value came out at 5.56 ± 0.29 h under setting [1]; 5.19 ± 0.32 h under setting [2]; 4.36 ± 0.27 h under setting [3]; 4.59 ± 0.36 h under setting [4]; 4.21 ± 0.85 h under setting [5]; 2.52 ± 0.099 h under setting [6]. Further, the “total protein half-life in vivo” value was 4.09 h under setting [7]; 8.57 ± 0.99 h under setting [8]; 4.67 h under setting [9]; 6.74 ± 0.68 h under setting [10]; 4.79 ± 0.23 h under setting [11]; 8.59 h under setting [12].

For the sequence “MSRPRRRGRDINGVLLLDKPQGMSSNDALQKVKRIYNANRAGHTGALDPLATGMLPICLGEATKFSQYLLDSDKRYRVIARLGQRTDTSDADGQIVEERPVTFSAEQLAAALDTFRGDIEQIPSMYSALKYQGKKLYEYARQGIEVPREARPITVYELLFIRHEGNELELEIHCSKGTYIRTIIDDLGEKLGCGAHVIYLRRLAVSKYPVERMVTLEHLRELVEQAEQQDIPAAELLDPLLMPMDSPASDYPVVNLPLTSSVYFKNGNPVRTSGAPLEGLVRVTEGENGKFIGMGEIDDEGRVAPRRLVVEYPA”, the “total protein half-life in vivo” value runs as follows: under setting [1], 5.81 ± 0.72 h; under setting [2], 4.93 ± 0.41 h; under setting [3], 4.51 ± 0.27 h; under setting [4], 4.83 ± 0.34 h; under setting [5], 4.29 ± 0.17 h; under setting [6], 3.06 ± 0.59 h. In addition, the “total protein half-life in vivo” value was 5.2 ± 0.55 h under setting [7]; 9.72 ± 0.41 h under setting [8]; 4.89 ± 0.18 h under setting [9]; 7.6476 ± 0.0051 h under setting [10]; 5.59 ± 0.17 h under setting [11]; 12.2 ± 2.5 h under setting [12].

Turning to “MESPLGSDLARLVRIWRALIDHRLKPLELTQTHWVTLHNIHQLPPDQSQIQLAKAIGIEQPSLVRTLDQLEEKGLISRQTCASDRRAKRIKLTEKAEPLISEMEAVINKTRAEILHGISAEELEQLITLIAKLEHNIIELQAKG [P0A8W2]”, the “total protein half-life in vivo” value runs as follows: under setting [1], 5.958 ± 0.04 h; under setting [2], 5.81 ± 0.18 h; under setting [3], 5.88 ± 0.54 h; under setting [5], 5.79 ± 0.084 h; under setting [6], 3.38 ± 0.4 h; under setting [7], 5.19 ± 0.19 h. The “total protein half-life in vivo” value reads like this: under setting [8], 11.38 ± 0.033 h; under setting [9], 5.01 ± 0.34 h; under setting [10], 11 ± 2.7 h; under setting [11], 4.64 ± 1.1 h; under setting [12], 9.76 ± 0.57 h.

Take “MIRVACVGITVMDRIYYVEGLPTESGKYVARNYTEVGGGPAATAAVAAARLGAQVDFIGRVGDDDTGNSLLAELESWGVNTRYTKRYNQAKSSQSAIMVDTKGERIIINYPSPDLLPDAEWLEEIDFSQWDVVLADVRWHDGAKKAFTLARQAGVMTVLDGDITPQDISELVALSDHAAFSEPGLARLTGVKEMASALKQAQTLTNGHVYVTQGSAGCDWLENGGRQHQPAFKVDVVDTTGAGDVFHGALAVALATSGDLAESVRFASGVAALKCTRPGGRAGIPDCDQTRSFLSLFV”: the “total protein half-life in vivo” value was determined as 6.62 ± 1.4 h under setting [1], 2.49 ± 0.19 h under setting [6], 5.95 ± 1.4 h under setting [7] and 7.92 ± 0.52 h under setting [8].

Consider “MKIKSIRKAVLLLALLTSTSFAAGKNVNVEFRKGHSSAQYSGEIKGYDYDTYTFYAKKGQKVHVSISNEGADTYLFGPGIDDSVDLSRYSPELDSHGQYSLPASGKYELRVLQTRNDARKNKTKKYNVDIQIK”, for which the “total protein half-life in vivo” value is 5.26 ± 0.85 h under setting [1]; 6.18 ± 1.5 h under setting [2]; 6.58 ± 0.55 h under setting [3]; 5.92 ± 0.064 h under setting [4]; 5.41 ± 2.6 h under setting [5]; 3.4 ± 0.059 h under setting [6]. Besides, the “total protein half-life in vivo” value was 5.32 ± 0.57 h under setting [7]; 9.98 ± 4 h under setting [8]; 6.12 ± 0.28 h under setting [9]; 11 ± 4.1 h under setting [10]; 4.9 ± 0.38 h under setting [11]; 11.1 ± 0.15 h under setting [12].

For the sequence “MTKVLLSHPPRPASHNSSRAMVWVRKNLFSSWSNSLLTIGCIWLMWELIPPLLNWAFLQANWVGSTRADCTKAGACWVFIHERFGQFMYGLYPHDQRWRINLALLIGLVSIAPMFWKILPHRGRYIAAWAVIYPLIVWWLMYGGFFALERVETRQWGGLTLTLIIASVGIAGALPWGILLALGRRSHMPIVRILSVIFIEFWRGVPLITVLFMSSVMLPLFMAEGTSIDKLIRALVGVILFQSAYVAEVVRGGLQALPKGQYEAAESLALGYWKTQGLVILPQALKLVIPGLVNTIIALFKDTSLVIIIGLFDLFSSVQQATVDPAWLGMSTEGYVFAALIYWIFCFSMSRYSQYLEKRFNTGRTPH”, under setting [9], the “total protein half-life in vivo” value was 4.17 h.
